Experimental data: the nanobody polyreactivity screen of Harvey et al. (2022)

Assay: yeast display, Sf9 membrane polyspecificity reagent, FACS + sequencing; frameworks hold sequencing errors
Outline: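 Using colony PCR, genes from sorted yeast display clones were amplified, then sequenced on MiSeq at 2 × 250 and filtered by CDR length. The clones had been stained with 10% biotinylated, detergent-solubilized Sf9 membrane reagent for 1 hour at 4 °C and sorted by FACS into low and high (top ~1%) gates on anti-HA and streptavidin fluorescence. Polyreactivity labels come from the gate of origin.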

Row | Sequence | polyreactivity (PSR sort gate)
1 | QVQLVESGGGLVQAGGSLRLSCAASGRTFGKNAMGWYRQAPGKEREFVAAITSRGGSTYYADSVKGRFTISRDNAKNTVYLQMNSLKPEDTAVYYCNREYNRPSQRTEHYYWGQGTQVTVSS | low polyreactivity
2 | QVQLVESGGGLVQAGGSLRLSCAASGRTFGKNAMGWYRQAPGKERELVAAISWSGGRTYYADSVKGRFTISRDNAKNTVYLQMNSLKPEDTAVYYCAAVRRRRNSYGYWGQGTQVNVSS | high polyreactivity
3 | QVQLVESGGGLVQAGGSLRLSCAASGRTFGKYAMGWYRQAPGKDRELVATISRSGGSTYYAVSVKGRFTISRDNAKNTVYLQMNSLKPEDTAVYYCNAVTSRYIWPPVVDRYHYWGQGTQVTVSS | high polyreactivity
4 | QVQLVESGGGLVQAGGSLRLSCAASGRTFGLYAMGWYRQAPGKERELVATITTSDIMTYYADSVKGRFTISRDNAKNTVYLQMNRLKPEDTAVYYCATGGYDDFSSRPANDYWGQGTQVTVSS | low polyreactivity
5 | QVQLVESGGGLVQAGGSLRLSCAASGRTFGNNAMGWYRQAPGKERELVASISSSGGTNYADSVKGRFTISRDNAKNTVYLLMNSLIPEDTAVYYCAKRKFTARQRFWGQGTQVTVSS | high polyreactivity
6 | QVQLVESGGGLVQAGGSLRLSCAASGRTFGNYVMGWYRQAPGKERELVAAISRSGGSTYYADSVKGRFTISRDNAKNTVYLQMNSLKPVDTAVYYCNTVTTYEVEYWGQGTQVNVSS | high polyreactivity
7 | QVQLVESGGGLVQAGGSLRLSCAASGRTFGPYAMGWYRQAPGKERELVAAITCSGGSTYYADSVKGRFTISRYNAKNTVYLQMNSLKPEDTAVYYCAPYHLSKLDYWGQGTQVTVSS | low polyreactivity
8 | QVQLVESGGGLVQAGGSLRLSCAASGRTFGPYAMGWYRQAPGKEREMVAAIRFSGGSTYYADSVKGRFTISRDNAKNTVYLQMNSLKPEDTAVYYCNARLGSSKGRVEKYGSWGQGTQVTVSS | high polyreactivity
9 | QVQLVESGGGLVQAGGSLRLSCAASGRTFGPYVMGGDRQAPGKERELVAGITSGGSTNYADSVKGRFTISRDNAKNTVYRQMNSLKPEDTAVYYCNADYLIYFGLYEYWGHGTQVTVSS | low polyreactivity
10 | QVQLVESGGGLVQAGGSLRLSCAASGRTFGRNAMGWYRQAPGKERELVAAISDRGASTYYADSVKGRFTISRDNAKNTVYLQMNSLKPEDTAVYYCAAVFWVDILPGDYWGQGTQVTVSS | low polyreactivity
11 | QVQLVESGGGLVQAGGSLRLSCAASGRTFGRNDMGWYRQAPGKERELLATITSGGSTNYADSVKGRFTISRDNAKNTVYLQMISLKPEDTAVYYCAAEFSPSRWAYSEGALRYNYWGQGTQVTVSS | low polyreactivity
12 | QVQLVESGGGLVQAGGSLRLSCAASGRTFGRNVMGWYRQAPGKERELVAAISRSGGSTYYADSVKGRFTISRDNAKNTVYLQMNSLKPEDTAVYYCAAKYYRDRDWGQGTQVTVSS | high polyreactivity
13 | QVQLVESGGGLVQAGGSLRLSCAASGRTFGRYALGWYRQAPGKERELVAAIRSGGSTYYADSVKGRFTISRDNAKNTVYLQMNSLKPEDTAVYYCAADIARHLTGFAYYRLDYWGQGTQVTVSS | low polyreactivity
14 | QVQLVESGGGLVQAGGSLRLSCAASGRTFGRYAMGWSRQAPGKERELVAAIRYTGGSTYADSVKGRFTISRDNAKNTVYLQMNSLKPEDTAVYYCAVLFYNNFGYWGQGTQVTVSS | low polyreactivity
15 | QVQLVESGGGLVQAGGSLRLSCAASGRTFGRYAMGWYRPAPGKERELVAAIRWTGGGTYYADSVKGRFTISRDNAKNTVYLQMNSLKPEDTAVYYCAADDYYYSVYRYEYWGEGTQVTVSS | high polyreactivity
16 | QVQLVESGGGLVQAGGSLRLSCAASGRTFGRYAMGWYRQAPGKERELVAAINSGSASTYYADSVKGRFTISRDNAKNTVYLEMNSLKPEDPAVYYCAKRVQQSTWYGYGIGYEYWGQGTQVTVSS | high polyreactivity
17 | QVQLVESGGGLVQAGGSLRLSCAASGRTFGRYAMGWYRQAPGKERELVAAISSSGGRTNYADSVKGRFTISRDNAKNTVYLQMNSLKPEDTAVYYCAAAGQRPYEKGDYWGQGTQVTVSS | low polyreactivity
18 | QVQLVESGGGLVQAGGSLRLSCAASGRTFGRYAMGWYRQAPGKERELVAAISWRGSSTSYADSVKGRFTISRDNAKNTVYLQMNSLKPEDTSVYYCNAKRSGGYGGYDYWGQGTQVTVSS | high polyreactivity
19 | QVQLVESGGGLVQAGGSLRLSCAASGRTFGRYAMGWYRQAPGKERELVAAITRGGGSTYYADSVKGRFTISRDNAKNTVYLQMNSLKPEDTAVYYCAARNFRSPYGYDYWGQGTQVTVSS | high polyreactivity
20 | QVQLVESGGGLVQAGGSLRLSCAASGRTFGRYAMGWYRQAPGKERELVATISSRGGNTYYADSVKGRFTISRDNAKNTVFLQMNSLKPEDTAVYYCAADVYSSDYDYWGQGTQVNVSS | high polyreactivity
21 | QVQLVESGGGLVQAGGSLRLSCAASGRTFGRYAMGWYRQAPGKERELVATISSRGGNTYYADSVKGRFTISRDNAKNTVYLQMNSLKPEDTAVYYCAAQTYKWYDWGQGTQVTVSS | high polyreactivity

Row | Sequence | polyreactivity (PSR sort gate)
22 | QVQLVESGGGLVQAGGSLRLSCAASGRTFGRYAMGWYRQAPGKERELVATITRGDSTYYADSVKGRFTISRDNAKNKVYLQMNSLKPEDTAVYYCAADWHRWYLDYDYWGQGTQVTVSS | low polyreactivity
23 | QVQLVESGGGLVQAGGSLRLSCAASGRTFGRYVMGWYRQAPGKERDLVAAITGVGSTKYADSVKGRFTISRDNAKNTVYLQMNSLKPEDTAVYYCAKRYLYDRRHAEYWAANDYWGQGTQVTVSS | low polyreactivity
24 | QVQLVESGGGLVQAGGSLRLSCAASGRTFGSNAMGRYRQAPGKDRELVAAISVRGGRTYYADSVKGRFTISRDIAKNTGYLQMNSLKPEDTAVYYCNAVYRTYEYYWGQGTQVTVSS | high polyreactivity
25 | QVQLVESGGGLVQAGGSLRLSCAASGRTFGSYAMGWYRQAPGKERELVAAIRYRGGSTYYADSVKGRFTISRDNAKNTVYLQMNSLKPEDTAVYYCAAKQGRYNIYSNYDYWGQGTQVTVSS | high polyreactivity
26 | QVQLVESGGGLVQAGGSLRLSCAASGRTFGTNAMGRYRKAPGKERELVAAITWRGGSTSYADSEKGRFTISRDNAKNSVYFQMNSLKPEDPAVYYCAVRLRYPGNTFYYLGQGTQVTVSS | high polyreactivity
27 | QVQLVESGGGLVQAGGSLRLSCAASGRTFGTNTKGWSRQAPGKERELVAAISSRGGTTYYADSVKGRFTISRDNAKNTVYLQMYSLKPEDTAVYYCNRARSSSRYDYWGQGTQVTVSS | low polyreactivity
28 | QVQLVESGGGLVQAGGSLRLSCAASGRTFGTYAIGWYRQAPGKERELVAAITGSGDRTYYADSVKGRFTISRDNAKNTVYLQMNSLKPEDTAVYYCAAYSDRSYGFWGQGTQVTVSS | low polyreactivity
29 | QVQLVESGGGLVQAGGSLRLSCAASGRTFGTYAMGWYRQAPGKERELVAAIRSNAGSTYYADSVKGRFTISRDNAKNTVYLQMNSLKPEDTAVYYCAKSYRSSRRYNYWGQGTQVTVSS | high polyreactivity
30 | QVQLVESGGGLVQAGGSLRLSCAASGRTFGTYAMGWYRQAPGKERELVAAITGSGDRTYYADSVKGRFTISRDNAKNTVYLQMNSLKPEDTAVYYCAAYSDRSYGYWGQGTQVTVSS | low polyreactivity
31 | QVQLVESGGGLVQAGGSLRLSCAASGRTFGTYAMGWYRQAPGKERELVASITSGDSTNYADSVKGRFTISRDYAKNTVYLQMNSLKPEDTAVYYCNARGDVIVTPPKFSFNYEYWGQGTQVTVSS | low polyreactivity
32 | QVQLVESGGGLVQAGGSLRLSCAASGRTFGVYAMGWYRQAPGKERELVAAITWSGGSTYYADSVKGRFTISRDNAKNTVYLQMNSLKPEDTAVYYCAADNWYKKQKRPSAYDYWGQGTQVTVSS | high polyreactivity
33 | QVQLVESGGGLVQAGGSLRLSCAASGRTFGVYAMGWYRQAPGKERELVARIRYSGGTTRYADSVKGRFTISRDNAKNTVYLQMNSLKPEDTAVYYCAATNWWGTEYDYWGQGTQVTVSS | high polyreactivity
34 | QVQLVESGGGLVQAGGSLRLSCAASGRTFGVYAMGWYRQAPGKERELVATITSVDRTNYADSVKGRFTISRDNAKNTVYLQMNSLKPEDTAVYYCAAVGRWPRYYYWGQGTQVTVSS | high polyreactivity
35 | QVQLVESGGGLVQAGGSLRLSCAASGRTFGVYAMGWYRQATGKERELVAGIRWRGGSTYYADSVKGRFTISRDNAKNTVYLQMNSLKPEDTAVYYCAAKVYYLYDSIWAWVIIRYDYWGQGTQVTVSS | low polyreactivity
36 | QVQLVESGGGLVQAGGSLRLSCAASGRTFGWYAMGWYRQAPGKERELVAAINNSGDITYYADSVKGRFTISRDNAKNTVYLQMNRLKPEDTAVYYCAKDNGRAYFGPSPYDYWGQGTQVTVSS | low polyreactivity
37 | QVQLVESGGGLVQAGGSLRLSCAASGRTFGYNAMGWYRQAPGKERELVAAIRYSGGSTYYADSVKGRFTISRDNAKNTVYLQMNSLKPEDTAVYYCAAYCLFSSYGYDYWGQGTQVTVSS | high polyreactivity
38 | QVQLVESGGGLVQAGGSLRLSCAASGRTFGYNAMGWYRQAPGKVRELVAAITSGGSTYYADSVKGRFTISRDNAKNTVYLQMNSLKPEDTAVYYCNARYPGFWSGWEEYWGQGTQVTVSS | high polyreactivity
39 | QVQLVESGGGLVQAGGSLRLSCAASGRTFGYNAMGWYSQAPGKERELVAAISWSGGRTYYADSVKGRFTISRDNAKNTVYLQMNSLKPEDTAVYYCAALPSVTNRYYIYGYWGQGTQVTGSS | high polyreactivity
40 | QVQLVESGGGLVQAGGSLRLSCAASGRTFGYYAMGWYRQAAGKDREFVAAITAGRGSTYYPDSVKGRFTISRDNAKNTVYLQMNSLKPEETAVYYCNAVPPGRTPVKGNFYYWGQGTQVTVSS | high polyreactivity
41 | QVQLVESGGGLVQAGGSLRLSCAASGRTFGYYAMGWYRQAPGKERELVAAISRSGGSTYYADSVKGRFTISGDNAKNTVYLQMNSLKPEDTAVYYCAVKGYVKSDYWGQGTQVTVSS | high polyreactivity
